In assay [1] the target is T1, human TNC rCd4-His-FBG (rat; human).
T1 sequence: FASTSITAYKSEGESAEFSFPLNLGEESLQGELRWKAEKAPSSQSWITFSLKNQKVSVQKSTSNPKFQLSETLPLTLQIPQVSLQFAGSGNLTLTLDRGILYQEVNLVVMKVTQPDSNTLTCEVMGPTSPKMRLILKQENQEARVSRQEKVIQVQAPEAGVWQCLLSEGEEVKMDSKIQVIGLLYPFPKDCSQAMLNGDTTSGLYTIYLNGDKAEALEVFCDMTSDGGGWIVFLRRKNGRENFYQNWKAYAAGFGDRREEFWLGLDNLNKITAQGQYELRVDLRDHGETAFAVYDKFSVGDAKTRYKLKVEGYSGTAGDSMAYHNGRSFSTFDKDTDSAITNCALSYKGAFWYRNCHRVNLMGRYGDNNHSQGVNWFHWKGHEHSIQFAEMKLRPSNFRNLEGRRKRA
In words: HTRF competition, scFv supernatant, competitor d2-labelled B12 IgG, biotinylated human rCd4-His-FBG. (In general: TR-FRET usually uses a lanthanide donor and a delayed reading to cut background.)

Another assay concerns the target T2, mouse TNC rCd4-His-FBG (rat; mouse, UniProt P05540 207-386).
T2 construct: domain: domains 3 and 4; also called Mu TNC; mouse TNC FBG
T2 sequence: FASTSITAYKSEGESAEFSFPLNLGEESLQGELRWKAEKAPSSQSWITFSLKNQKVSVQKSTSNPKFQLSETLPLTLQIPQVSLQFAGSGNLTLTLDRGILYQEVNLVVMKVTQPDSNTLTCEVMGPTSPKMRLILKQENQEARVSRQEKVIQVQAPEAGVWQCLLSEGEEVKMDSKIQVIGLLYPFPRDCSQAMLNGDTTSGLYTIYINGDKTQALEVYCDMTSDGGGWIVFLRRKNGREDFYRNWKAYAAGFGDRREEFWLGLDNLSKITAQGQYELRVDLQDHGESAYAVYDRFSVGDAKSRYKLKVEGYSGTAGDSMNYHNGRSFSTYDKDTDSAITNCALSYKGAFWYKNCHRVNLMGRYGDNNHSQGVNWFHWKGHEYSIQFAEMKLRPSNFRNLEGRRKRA
Nature of the assay: anti-FLAG capture DELFIA ELISA, scFv supernatant, biotinylated mouse rCd4-His-FBG. Here is the method: E. coli clones harbouring scFv pSANG10 expression plasmids were induced in 96-well plates with auto-induction media as described previously (Schofield et al, 2007). E. coli supernatants were harvested for ELISA assays. ELISA used the DELFIA (dissociation enhanced lanthanide fluorescent immunoassay) system with Europium-labelled anti-FLAG antibody (Sigma, Aldrich, UK). Black immunosorb plates (Nunc) were coated overnight with anti-FLAG M2 antibody (Sigma, F3165, 5 μg/ml in PBS, 50 μl per well), in wells blocked by the addition of 2% milk powder, PBS (PBS-M, 300 μl per well). Plates were washed three times with PBS-T (PBS, 0.1% Tween-20) and three times with PBS followed by the addition of a 1:2 dilution of 96-well auto-induction culture supernatants containing expressed scFv in PBS-M (50 μl per well). The plates were incubated for 1 h, washed as above and biotinylated mouse or human rCd4-His-FBG (5 μg/ml in PBS-M, 50 μl) added to each well. Plates were incubated for a further 1 h, washed and Strepravidin-Eu added (Perkin Elmer, 1 μg/ml, PBS-M, 50 μl), incubated for 30 min, washed and DELFIA enhancement solution added (50 μl) and plates read on a Perkin Elmer Fusion plate reader (excitation=320 nm, emission 620 nm). The format of the assay is shown in.
(ELISA stands for enzyme-linked immunosorbent assay.)

In a further assay the target is T3, human TNC rCd4-His-FBG (rat; human, UniProt P05540 207-386).
T3 construct: domain: domains 3 and 4; Biotinylated in the ELISA and HTRF assays; also called Hu TNC; human TNC FBG
T3 sequence: T1 sequence
Nature of the assay: HTRF competition, scFv supernatant, competitor d2-labelled B12 IgG, biotinylated human rCd4-His-FBG. The procedure:
An HTRF-based competition assay was developed to screen for antibody variants with improved binding to human TNC FBG.
All samples and reagents were prepared in assay buffer (50 mM NaPO₄, 0.1% BSA, 0.4 M KF, pH 7.0) at 4× the stated concentration. 5 μl of each reagent was subsequently added to low volume 384-well assay plates (Greiner, 784075) to give a final reaction volume of 20 μl. IgG antibodies were labelled using the d2 labelling kit (CisBio, 62D2DPEA) as directed by the manufacturer. Streptavidin europium cryptate (CisBio, 610SAKLA, Lot#25C) was used at a final concentration of 1.8 ng active moiety (SA) per 20 μl reaction as recommended by the manufacturer. Biotinylated rCd4-His-FBG was prepared using EZ-link Sulfo-NHS-LC-Biotin reagent (Thermo Scientific, 21327) the extent of biotinylation was quantified using biotinylation fluorescence quantitation kit (Thermo Scientific, 46610). Where appropriate, supernatants containing scFv (prepared as described above for ELISA assays) were added to the 384-well assay plate at a final dilution of 1/20 (i.e. 1/5 dilution in assay buffer followed by addition of 5 μl diluted sample to the 20 μl FRET assay). […] Unless otherwise stated, biotinylated rCd4-His-FBG (biotin:protein ratio=1.8:1) was present at either 2.2 nM (in assays using the 2A5 IgG antibody) or 1 nM (in experiments using B12 IgG). Samples were incubated for approximately 1 h at room temperature and the FRET signal was determined using a BMG Pherastar instrument: excitation=320 nm; emission=620 nm and 665 nm; integration start time=60 μs; integration time=500 μs; 100 flashes per well. For competition assays containing culture supernatant, biotinylated rCd4-His-FBG antigen was pre-incubated with streptavidin europium cryptate for 45 min prior to addition of reagents to the assay plate. All FRET signals are presented as ΔR, where R=(E665/E620×104) and ΔR=(Rsample−Rbackground fluorescence).
Culture supernatants containing unlabelled scFv clones from affinity selected mutant libraries were tested for inhibition of the interaction between FBG and the fluorophore-labelled parental IgG antibody.

Where a chain is given by its changes, count along the chain named.

B1: 2A5 scFv (scFv, V domains shown, not shown: small tags and cut ends)
VH: EVRLVQSGAEVKKPGASVKVSCKVSGYTLTELSMHWVRQAPGKGLEWMGGFDPEDGETIYAQKFQGRVTMTEDTSTDTAYMELSSLRSEDTAVYYCATAQKETYALTYWGQGTLVTVSS
VL: DIQMTQSPASLPTSVGDRVTITCRASQYIQGFLNWYQQKPGKAPRLLIYAASTLQDGVPSRFSGSGYGTDFTLTISSLQPEDFATYYCQQSYSTPWTFGQGTKVEIK
B1: the % inhibition by parent scFv in assay [1] was 19%.

B2: 165_13_D1 scFv (scFv, V domains shown)
VH: QVQLVESGGGLVQPGRSLRLSCAASGFTFDDYAMHWVRQAPGKGLEWVSGISGSGGSTYYADSVKGRFTISRDNAKNSLYLQMNSLRAEDTALYYCAKGTRGEGDTFDIWGQGTMVTVSS
VL: B1 VL with S14P, R45K, A50D, T53N, Q55E, D56T, Y67S, W96Q, E105D
notes: VH CDR3 GTRGEGDTFDI; not shown: scFv linker, domain order, and the tags of the pSANG10 vector (FLAG and others)
B2: the “fold improvement for mouse FBG binding (against the parent B12)” value (“fold improvement for mouse FBG binding” below) with mouse TNC rCd4-His-FBG was ≥ 4 fold. Moreover, the “% inhibition of HTRF signal” value in the assay with human TNC rCd4-His-FBG is 91%.

B3: 165_13_B1 scFv (scFv, V domains shown)
VH: B2 VH with G99V, T100M, R101S, G102S, E103M, G104E, T106A
VL: B1 VL with S14P, R45K, A50D, T53N, Q55E, D56T, Y67S, W96Q, E105D
notes: VH CDR3 VMSSMEDAFDI; not shown: scFv linker, domain order, and the tags of the pSANG10 vector (FLAG and others)
Consider B3, for which the “fold improvement for mouse FBG binding” value with mouse TNC rCd4-His-FBG was ≥ 4 fold. Further, the “% inhibition of HTRF signal” value with human TNC rCd4-His-FBG is 91%.

B4: 165_13_B6 scFv (scFv, V domains shown)
VH: B2 VH with T100Q, R101K
VL: B1 VL with S14P, R45K, A50D, T53N, Q55E, D56T, Y67S, W96Q, E105D
notes: VH CDR3 GQKGEGDTFDI; not shown: scFv linker, domain order, and the tags of the pSANG10 vector (FLAG and others)
As to B4, the “fold improvement for mouse FBG binding” value with mouse TNC rCd4-His-FBG was ≥ 4 fold. Further, in the assay with human TNC rCd4-His-FBG, the “% inhibition of HTRF signal” value was 91%.

B5: 165_13_C3 scFv (scFv, V domains shown)
VH: B2 VH with G99S, T100Y, R101Q, G102S, E103D, G104E, T106A
VL: B1 VL with S14P, R45K, A50D, T53N, Q55E, D56T, Y67S, W96Q, E105D
notes: VH CDR3 SYQSDEDAFDI; Antibody C3 of the B12 family; not shown: scFv linker, domain order, and the tags of the pSANG10 vector (FLAG and others)
Turning to B5, the “fold improvement for mouse FBG binding” value in the assay with mouse TNC rCd4-His-FBG was ≥ 4 fold. The “% inhibition of HTRF signal” value in the assay with human TNC rCd4-His-FBG came out at 91%.

B6: 165_13_D4 scFv (scFv, V domains shown)
VH: B2 VH with R101V
VL: B1 VL with S14P, R45K, A50D, T53N, Q55E, D56T, Y67S, W96Q, E105D
notes: VH CDR3 GTVGEGDTFDI; not shown: scFv linker, domain order, and the tags of the pSANG10 vector (FLAG and others)
For B6, the “fold improvement for mouse FBG binding” value with mouse TNC rCd4-His-FBG was ≥ 4 fold. For the same molecule, the “% inhibition of HTRF signal” value with human TNC rCd4-His-FBG is 91%.

B7: 165_13_E1 scFv (scFv, V domains shown, not shown: small tags and cut ends)
VH: B2 VH with G99D, T100I, R101S, G102A, E103V, G104M, T106V, F107P, D108Q, I109T
VL: B1 VL with S14P, R45K, A50D, T53N, Q55E, D56T, Y67S, W96Q, E105D
notes: VH CDR3 DISAVMDVPQT; 48 is used
With B7, in the assay with mouse TNC rCd4-His-FBG, the “fold improvement for mouse FBG binding” value was ≥ 4 fold. Besides, in the assay with human TNC rCd4-His-FBG, the “% inhibition of HTRF signal” value was determined as 91%.

B8: 165_13_B3 scFv (scFv, V domains shown, not shown: small tags and cut ends)
VH: B2 VH with G99A, T100L, R101A, G102R, E103G, G104H
VL: B1 VL with S14P, R45K, A50D, T53N, Q55E, D56T, Y67S, W96Q, E105D
notes: VH CDR3 ALARGHDTFDI
For B8, in the assay with mouse TNC rCd4-His-FBG, the “fold improvement for mouse FBG binding” value was ≥ 4 fold. In addition, the “% inhibition of HTRF signal” value with human TNC rCd4-His-FBG worked out at 91%.

B9: 165_13_A4 scFv (scFv, V domains shown)
VH: B2 VH with G99D, T100K, R101Y, G102P, E103V, G104L
VL: B1 VL with S14P, R45K, A50D, T53N, Q55E, D56T, Y67S, W96Q, E105D
notes: VH CDR3 DKYPVLDTFDI; not shown: scFv linker, domain order, and the tags of the pSANG10 vector (FLAG and others)
Regarding B9, the “fold improvement for mouse FBG binding” value in the assay with mouse TNC rCd4-His-FBG was ≥ 4 fold. Besides, in the assay with human TNC rCd4-His-FBG, the “% inhibition of HTRF signal” value amounted to 91%.

B10: 180_11_F5 scFv (scFv, V domains shown, not shown: small tags and cut ends)
VH: B2 VH with G99V, T100M, G102T, E103G, G104L
VL: B1 VL with S14P, R45K, A50D, T53N, Q55E, D56T, Y67S, W96Q, E105D
notes: VH CDR3 VMRTGLDTFDI
With B10, in the assay with mouse TNC rCd4-His-FBG, the “fold improvement for mouse FBG binding” value was ≥ 4 fold. Moreover, the “% inhibition of HTRF signal” value in the assay with human TNC rCd4-His-FBG was determined as 91%.
